Tests used:
[1] = target: T1, PCBP-2 (poly(C)-binding protein 2) (UniProt Q15366 1-365); test: ELONA-qPCR; Kd in range 8.4-89.9 nM, value in figure; ELONA: 100 mM HEPES pH 7.4, 100 mM NaCl, 6 mM MgCl2, 37 °C, 60 min, PCBP-2 (10 pmol) immobilized on Cu2+ plates; EMSA: 40 mM Tris-HCl pH 7.5, 250 mM NaCl, 0.1%; conditions: protein: recombinant; tags: N-terminal 6xHis
[2] = target: T1, PCBP-2 (poly(C)-binding protein 2); test: ELONA-RTqPCR; 6 mM Mg2+; ELONA: 100 mM HEPES pH 7.4, 100 mM NaCl, 6 mM MgCl2, 37 °C, 60 min, PCBP-2 (10 pmol) immobilized on Cu2+ plates; EMSA: 40 mM Tris-HCl pH 7.5, 250 mM NaCl, 0.1%; conditions: protein: recombinant; tags: N-terminal 6xHis
[3] = target: T1, PCBP-2 (poly(C)-binding protein 2); test: ELONA-qPCR; Kd in range 8.4-89.9 nM, value in figure; highest DNA Bmax; ELONA: 100 mM HEPES pH 7.4, 100 mM NaCl, 6 mM MgCl2, 37 °C, 60 min, PCBP-2 (10 pmol) immobilized on Cu2+ plates; EMSA: 40 mM Tris-HCl pH 7.5, 250 mM NaCl, 0.1%; conditions: protein: recombinant; tags: N-terminal 6xHis
[4] = target: T1, PCBP-2 (poly(C)-binding protein 2); test: ELONA-qPCR; 6 mM Mg2+; ELONA: 100 mM HEPES pH 7.4, 100 mM NaCl, 6 mM MgCl2, 37 °C, 60 min, PCBP-2 (10 pmol) immobilized on Cu2+ plates; EMSA: 40 mM Tris-HCl pH 7.5, 250 mM NaCl, 0.1%; conditions: protein: recombinant; tags: N-terminal 6xHis
[5] = target: T1, PCBP-2 (poly(C)-binding protein 2); test: ELONA-RTqPCR; Kd in range 24.1-276.5 nM, value in figure; ELONA: 100 mM HEPES pH 7.4, 100 mM NaCl, 6 mM MgCl2, 37 °C, 60 min, PCBP-2 (10 pmol) immobilized on Cu2+ plates; EMSA: 40 mM Tris-HCl pH 7.5, 250 mM NaCl, 0.1%; conditions: protein: recombinant; tags: N-terminal 6xHis
[6] = target: T1, PCBP-2 (poly(C)-binding protein 2); test: ELONA-RTqPCR; Kd in range 24.1-276.5 nM, value in figure; highest RNA Bmax; ELONA: 100 mM HEPES pH 7.4, 100 mM NaCl, 6 mM MgCl2, 37 °C, 60 min, PCBP-2 (10 pmol) immobilized on Cu2+ plates; EMSA: 40 mM Tris-HCl pH 7.5, 250 mM NaCl, 0.1%; conditions: protein: recombinant; tags: N-terminal 6xHis
[7] = target: T1, PCBP-2 (poly(C)-binding protein 2); test: EMSA; 0.1-27.1 nM protein; two retarded complexes; ELONA: 100 mM HEPES pH 7.4, 100 mM NaCl, 6 mM MgCl2, 37 °C, 60 min, PCBP-2 (10 pmol) immobilized on Cu2+ plates; EMSA: 40 mM Tris-HCl pH 7.5, 250 mM NaCl, 0.1%; conditions: protein: recombinant; tags: N-terminal 6xHis; label: 32P-CTP uniform

T1 sequence (Q15366 whole entry): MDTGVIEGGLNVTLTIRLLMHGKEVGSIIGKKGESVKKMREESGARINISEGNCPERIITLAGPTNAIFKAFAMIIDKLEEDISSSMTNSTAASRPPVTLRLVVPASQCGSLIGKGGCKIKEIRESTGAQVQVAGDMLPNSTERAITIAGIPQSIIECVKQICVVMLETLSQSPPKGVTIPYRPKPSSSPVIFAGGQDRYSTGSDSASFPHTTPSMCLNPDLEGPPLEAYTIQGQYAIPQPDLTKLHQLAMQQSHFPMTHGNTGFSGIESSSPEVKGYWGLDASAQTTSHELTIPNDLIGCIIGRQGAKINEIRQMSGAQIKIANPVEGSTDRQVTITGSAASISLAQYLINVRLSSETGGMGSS

B1: 05DS10-01 (ssDNA)
DNA: GCGGATCCAGACTGGTGTGCACAGCACATGCATTACTGCGGTAATCCGTGTCCTTTGTGCCCTAAAGACAAGCTTC
Does B1 bind [1]?
Result: binds

B2: 05RS10-09 (ssRNA)
RNA: GGGGCGGAUCCAGACUGGUGUACACGGUGUUUAGUAGUUUAAUGAAUCUUUUAGUUCUUGGGCCCUAAAGACAAGCUUC
Which Kd [2] does the source give for B2 here?
Its Kd is 24.1 nM.

B3: 05DS10-05 (ssDNA)
DNA: GCGGATCCAGACTGGTGTACCTGTTAGCAAGAGTTTATTATGTAAAGATATCCGTTGGGCCCTAAAGACAAGCTTC
Does B3 bind [3]?
Result: binds

B4: 05DS10-21 (ssDNA)
DNA: GCGGATCCAGACTGGTGTGGAGGTTAGCCGAAACACGTATACGCGTATTTATCCTCGGGCCCTAAAGACAAGCTTC
How did the Kd [4] turn out when B4 was run?
Its Kd is 8.4 nM.

B5: 05DS10-12 (ssDNA)
DNA: GCGGATCCAGACTGGTGTGCAGGTATGCCGGATCATGTCGTGAAAGTATCCATTTCTCGCCCTAAAGACAAGCTTC
Does B5 bind [1]?
Result: binds

B6: 05DS10-22 (ssDNA)
DNA: GCGGATCCAGACTGGTGTCAATGGTACTCTTCATTGTAGTCGCTTTGTTTATTAGCCGGCCCTAAAGACAAGCTTC
Does B6 bind [1]?
Result: binds

B7: 05RS10-30 (ssRNA)
RNA: GGGGCGGAUCCAGACUGGUGUUUCCGCAAAGAGUGGUCUUUGUUAAUGUCAGGUUUCUUCGGCCCUAAAGACAAGCUUC
Does B7 bind [5]?
Result: binds

B8: 05RS10-19 (ssRNA)
RNA: GGGGCGGAUCCAGACUGGUGUAAUCGAUCUUGCAUGCUAUUCGUCAAUCAACUCUUGCCGGCCCUAAAGACAAGCUUC
Does B8 bind [5]?
Result: binds

B9: 05RS10-11 (ssRNA)
RNA: GGGGCGGAUCCAGACUGGUGUGAUCAUAUUAAUAAGACGCUUCCAGGUACGUCGCUGUUGGGCCCUAAAGACAAGCUUC
Does B9 bind [5]?
Result: binds

B10: 05DS10-26 (ssDNA)
DNA: GCGGATCCAGACTGGTGTGGGAATGTTGTTTATGTATTTGTTCTGAGCTCTACCTTTGCCCTAAAGACAAGCTTC
Does B10 bind [1]?
Result: binds

B11: 05RS10-34 (ssRNA)
RNA: GGGGCGGAUCCAGACUGGUGUGAACACAGACGAGAACGUUGCAUAAAACCGCUUUUUUGGGCCCUAAAGACAAGCUUC
Does B11 bind [5]?
Result: binds

B12: 05RS10-18 (ssRNA)
RNA: GGGGCGGAUCCAGACUGGUGUUUAAUUAUGUAAGUAAAUUGUUUUUUGACUCUCGCAUUGGGCCCUAAAGACAAGCUUC
Does B12 bind [5]?
Result: binds

B13: 05DS10-18 (ssDNA)
DNA: GCGGATCCAGACTGGTGTCCTATCTATAATTTTGCAGTCCACGTTTCTCTTGTGTGTGCCCTAAAGACAAGCTTC
Does B13 bind [1]?
Result: binds

B14: 05DS10-02 (= 05DS10-03) (ssDNA)
DNA: GCGGATCCAGACTGGTGTACTGGGCTAGTTGCCTCTGCAGATTAGATGATGACAGTGGCCCTAAAGACAAGCTTC
Does B14 bind [1]?
Result: binds

B15: 05RS10-32 (ssRNA)
RNA: GGGGCGGAUCCAGACUGGUGUCUUCCUGCUUGUGUUAUUUUCUAUUGUCGUGCGUGUUCGGGCCCUAAAGACAAGCUUC
Does B15 bind [6]?
Result: binds

B16: 05RS10-32-32P (ssRNA)
RNA: B15 RNA
Does B16 bind [7]?
Result: binds

B17: 05RS10-04 (ssRNA)
RNA: GGGGCGGAUCCAGACUGGUGUCAUUUAGCAAAAACACUUGUAUAAUUCAAGUCGAUGUUGGGCCCUAAAGACAAGCUUC
Does B17 bind [5]?
Result: binds
